In PMC4933373, “Conformational Stability of the NH2-Terminal Propeptide of the Precursor of Pulmonary Surfactant Protein SP-B” (PLoS ONE, 2016):

Tests used:
[1] = biological target: the molecule itself; experiment: differential scanning calorimetry; 0.3 mg/mL SP-BN in 5 mM Tris-HCl pH 7, 500 mM NaCl, 20-120°C at 60°C/h; second transition fitted to the Non Two-State model with two peaks; ratio of van't Hoff to calorimetric enthalpy
[2] = biological target: the molecule itself; experiment: AUC; sedimentation velocity, 0.15 mg/mL SP-BN in 5 mM Tris-HCl pH 7.0, 500 mM NaCl, 20°C, 48,000 rpm; 35% of the loaded protein detected
[3] = biological target: the molecule itself; experiment: AUC; sedimentation velocity, 0.15 mg/mL SP-BN in 5 mM Tris-HCl pH 7.0, 150 mM NaCl, 20°C, 48,000 rpm
[4] = biological target: the molecule itself; experiment: cross-linking; 0.26 mg/mL SP-BN in 20 mM Tris-HCl, 500 mM NaCl pH 7.0, 0.08% (v/v) glutaraldehyde for 20 s and 120 s at 20°C; SDS-PAGE and immunoblot

B1: NH2-terminal propeptide of the precursor of pulmonary surfactant protein SP-B (recombinant human SP-BN) (domain or fragment, UniProt P07988 24-200, looked up)
chain: AWTTSSLACAQGPEFWCQSLEQALQCRALGHCLQEVWGHVGADDLCQECEDIVHILNKMAKEAIFQDTMRKFLEQECNVLPLKLLMPQCNQVLDDYFPLVIDYFQNQTDSNGICMHLGLCKSRQPEPEQEPGMSDPLPKPLRDPLPDPLLDKLVLPVLPGALQARPGPHTQDLSEQQ
notes: 177 amino acids, 19,902 Da from the composition; Not glycosylated (made in bacteria); also called N-terminal propeptide of proSP-B; the propeptide; source: E. coli, expressed as fusion MBP-SP-BN, purified after cleaving the fusion with factor Xa
[1]
  stoichiometry N: ~4
[2]
  stoichiometry N: 6
[3]
  stoichiometry N: 2
[4]
  stoichiometry N: 3
